Four molecules from patent US20230220053A1 (published 2023) can be followed below.

For assay [1], the target named is T1, S1-Fc (SARS-CoV-2 S1 protein, Fc fusion) (SARS-CoV-2, UniProt P0DTC2 16-685). As to the kind of experiment: SPR (Biacore T200), S1 captured on anti-human Fc chip, scFv injected. On the technique in general: SPR reads the build-up and loss of mass on a sensor chip optically.
The target of assay [2] is T2, S1 protein of SARS-CoV-2 (recombinant, construct not stated) (SARS-CoV-2, UniProt P0DTC2 16-685). As to the kind of experiment: ELISA, S1 coated, scFv titrated, anti-Flag HRP. For orientation: In an ELISA, binding on a coated surface is turned into a signal by an enzyme label.
In assay [3] the target is T1, S1-Fc (SARS-CoV-2 S1 protein, Fc fusion). As to the kind of experiment: SPR (Biacore T200), S1 captured on anti-human Fc chip, scFv injected. The source holds these as a separate data set.
For assay [4], the target named is T3, SARS-CoV-2-RBD (328-533)-Fc (SARS-CoV-2).
T3 construct: also called RBD-Fc
As to the kind of experiment: SPR (Biacore T200), RBD captured on anti-human Fc chip, scFv injected.

Assay [5] deals with T3, SARS-CoV-2-RBD (328-533)-Fc. The description is as above. This is another data set of the same source.
The target in assay [6] is T4, RBD of SARS-CoV-2 spike protein S1 (recombinant, construct not stated) (SARS-CoV-2, UniProt P0DTC2 328-533).
The target of assay [7] is T2, S1 protein of SARS-CoV-2 (recombinant, …).
Assay [8] shares this target. The source holds these as a separate data set.
The target of assay [9] is T4, RBD of SARS-CoV-2 spike protein S1 …. As to the kind of experiment: ELISA, RBD coated, scFv titrated, anti-Flag HRP.
In assay [10] the target is S protein of SARS-COV-2 (Sino Biologics) (SARS-CoV-2, UniProt P0DTC2 16-1213). The assay is described as follows: ELISA, S protein (Sino Biologics) coated, anti-human Fc HRP.
Assay [11] addresses T5, RBD of SARS-COV (ACRO Biosciences) (SARS-COV, UniProt P59594 306-527).
T5 construct: domain: RBD; also called RBD-SARS; SARS-COV, RBD
As to the kind of experiment: ELISA, SARS-COV RBD coated, IgG titrated, anti-human Fc HRP.

The target of assay [12] is T6, S1 protein of SARS-COV (ACRO Biosciences) (SARS-COV, UniProt P59594 14-667).
T6 construct: domain: S1
As to the kind of experiment: ELISA, SARS-COV S1 coated, IgG titrated, anti-human Fc HRP.

The target of assay [13] is T2, S1 protein of SARS-CoV-2 (recombinant, …). As to the kind of experiment: ELISA, S1 coated, IgG1 titrated, anti-human Fc HRP.
Assay [14] has the same target. The assay is described as follows: SPR (Biacore T200), IgG captured on protein A chip, S1 injected.
For assay [15], the target named is T4, RBD of SARS-CoV-2 spike protein S1 …. The assay is described as follows: SPR (Biacore T200), IgG captured on protein A chip, RBD injected.
The target is the same in assay [16]. As to the kind of experiment: ELISA, RBD coated, IgG1 titrated, anti-human Fc HRP.

As usually defined, the Kd is the constant that tells how readily two partners part at equilibrium. The koff is the rate constant with which the complex falls apart. One may read the kon as a measure of how fast the partners come together. What is called EC50 is the concentration needed to bring the measured effect to its halfway point. For orientation: IC50 means the point on the concentration scale where inhibition reaches its midpoint.

Like-named read-outs stand apart in the source and are kept apart here.

B1: 2020EP54-E10 scFv (scFv)
scFv: QVQLVQSGAEVRKPGSSVKVSCKASGGTFSSFAISWVRQAPGQGLEWMGGIIPIFDTATYAQNFQGRVRMTADESTNTAYMELSSLTSEDTAVYYCARSTSYYDSRGDYKVGDFDYWGQGTLVTVSSGGGGSGGGGSGGGGSAIRMTQSPSSLSASVGDRVTITCQASQDISNYLNWYQQKPGKAPKLLIYDASNLETGVPSRFSGSGSGTDFTFTISSLQPEDIATYYCQQYDNLPLTFGGGTKVEIK
notes: also called 2020EP054-E10
With B1, the Kd came out at 3.35 nM in [1], 3.35 nM in assay [3], 1.9 nM in [4] and 1.89 nM in assay [5]. Also, the koff turned out to be 0.00106 s⁻¹ in [1], 0.00106 s⁻¹ in [3], 0.000906 s⁻¹ in assay [4] and 0.000906 s⁻¹ in assay [5]. Moreover, the kon in assay [1] stood at 316000 M⁻¹ s⁻¹; in assay [3], 316000 M⁻¹ s⁻¹; in assay [4], 477000 M⁻¹ s⁻¹; in assay [5], 477000 M⁻¹ s⁻¹. Besides, the figures for the EC50 in [2] and in [9] were 0.154 nM and 0.16 nM, respectively. The IC50 in [6] is less than 1 nM; in [7], 4.94 nM; in assay [8], 4.69 nM.

B2: 2020EP54-B12 IgG1 (antibody, V domains shown)
VH: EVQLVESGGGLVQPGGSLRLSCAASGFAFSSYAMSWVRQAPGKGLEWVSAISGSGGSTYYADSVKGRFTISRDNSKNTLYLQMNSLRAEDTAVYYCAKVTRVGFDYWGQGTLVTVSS
VL: SYELTQPPSVSVAPGKTARITCGGNNIGSKSVHWYQQKPGQAPVLVIYYDSDRPSGIPERFSGSNSGNTATLTISRVEAEDEADYYCQVWDSSSDVVFGGGTKLTVL
notes: also called 2020EP054-B12; EP054-B12, IgG1
Consider B2, for which the EC50 was determined as 0.032 nM in assay [10], 0.045 nM in [13] and 0.045 nM in assay [16]. Also, the binding result in [11] and in assay [12] was “no binding (tested: 200 nM (highest concentration tested))” throughout. For the same molecule, the Kd in [14] was found to be 61.9 nM; in assay [15] it was 6.4 nM. In addition, the values for the koff in [14] and in assay [15] were 0.00507 s⁻¹ and 0.00578 s⁻¹, respectively. The kon in assay [14] was found to be 82000 M⁻¹ s⁻¹; in assay [15], 903000 M⁻¹ s⁻¹.

B3: 2020EP54-H01 IgG1 (antibody, V domains shown)
VH: QVQLVESGGGVVQPGRSLRLSCAASGFTFSSYGMHWVRQAPGKGLEWVAVISYDGSNKYYADSVKGRFTISRDNSKNTLYLQMNSLRAEDTAVYYCAKGRGWYLDYWGQGTLVTVSS
VL: NFMLTQPPSVSVSPGQTASITCSGDKLGDKYACWYQQKPGQSPVLVMYEDYKRPSGIPARFSGSNSGNTATLTISRVEGGDEGDYYCQVWDSRGPEVIFGGGTKLTVL
notes: also called 2020EP054-H01; EP054-H01, IgG1
As to B3, the EC50 in assay [10] was determined as 11.5 nM; in [13], 0.101 nM; in assay [16], 0.101 nM. Besides, the binding result in assay [11] and in assay [12] was “no binding (tested: 200 nM (highest concentration tested))” in each case.

B4: 2020EP54-E12 scFv (scFv)
scFv: EVQLVESGGGLVQPGGSLRLSCAVTGFIVSSNYMNWVRQAPGKGLEWVSVIYSGGTTYYADSVKGRFTISRDKSKNTLYLQMNNLRAEDTAMYYCATLGNDYGDYGTDYWGQGTLVTVSSGGGGSGGGGSGGGGSQLVLTQPPSVSVSPGQTASISCSGDRLGQKYTSWYQQRPGQSPVLIMYQDNKRPSGIPERFSGSNSGNTATLTISGIQSMDEADYYCQVWDSGSDHAVFGGGTQLTVL
notes: also called 2020EP054-E12
B4: the half-maximal effective concentration (EC50) in assay [2] stood at 0.737 nM; in assay [9] it was 0.486 nM. Also, the Kd in [3] came to 13.2 nM; in assay [5] it was 9.61 nM. Besides, the koff in [3] is 0.000687 s⁻¹; in [5] it was 0.000469 s⁻¹. Besides, the values for the kon in assay [3] and in assay [5] were 51900 M⁻¹ s⁻¹ and 48900 M⁻¹ s⁻¹, respectively. Further, the IC50 in assay [6] stood at 6.69 nM; in [7], 8.57 nM; in assay [8], 6.58 nM.
